T1: human MICA*002 expressed on CHO cells (human, UniProt Q29983 24-382)
T1 construct: also called MICA allele 002
T1 chain: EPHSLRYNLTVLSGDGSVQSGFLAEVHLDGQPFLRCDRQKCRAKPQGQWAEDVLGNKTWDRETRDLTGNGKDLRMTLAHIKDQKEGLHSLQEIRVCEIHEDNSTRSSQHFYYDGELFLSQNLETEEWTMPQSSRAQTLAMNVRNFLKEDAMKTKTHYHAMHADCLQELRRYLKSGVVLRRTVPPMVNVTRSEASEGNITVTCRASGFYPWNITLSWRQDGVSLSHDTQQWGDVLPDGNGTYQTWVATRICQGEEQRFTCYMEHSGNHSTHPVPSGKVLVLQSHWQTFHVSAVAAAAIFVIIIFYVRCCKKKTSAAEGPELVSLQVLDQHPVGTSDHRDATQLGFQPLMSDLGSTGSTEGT

T2: human MICA*008 expressed on CHO cells (human, UniProt Q29983 24-331)
T2 construct: also called MICA allele 008
T2 chain: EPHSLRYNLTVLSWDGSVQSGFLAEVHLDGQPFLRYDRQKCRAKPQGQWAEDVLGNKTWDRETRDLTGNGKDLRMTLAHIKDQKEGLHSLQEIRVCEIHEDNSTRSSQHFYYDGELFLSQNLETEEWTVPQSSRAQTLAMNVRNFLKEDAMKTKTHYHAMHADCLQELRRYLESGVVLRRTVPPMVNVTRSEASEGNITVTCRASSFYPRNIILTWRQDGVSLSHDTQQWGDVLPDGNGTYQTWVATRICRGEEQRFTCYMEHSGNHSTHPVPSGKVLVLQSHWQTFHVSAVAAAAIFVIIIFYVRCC

T3: human MICB expressed on transduced cells (human, UniProt Q29980 23-382)
T3 construct: also called MICB*005
T3 chain: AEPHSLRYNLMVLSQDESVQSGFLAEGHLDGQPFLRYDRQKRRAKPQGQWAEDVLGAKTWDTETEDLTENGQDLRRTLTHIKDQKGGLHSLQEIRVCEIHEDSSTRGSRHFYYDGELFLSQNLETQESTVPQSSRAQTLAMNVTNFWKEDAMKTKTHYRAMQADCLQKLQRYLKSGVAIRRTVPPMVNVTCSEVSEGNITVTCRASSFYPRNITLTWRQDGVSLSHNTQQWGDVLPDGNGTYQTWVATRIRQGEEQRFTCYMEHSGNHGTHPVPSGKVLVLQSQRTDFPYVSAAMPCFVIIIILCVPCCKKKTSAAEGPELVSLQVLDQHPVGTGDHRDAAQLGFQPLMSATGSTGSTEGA

T4: recombinant soluble human MICA*002 antigen (human, UniProt Q29983 24-307)
T4 construct: also called huIMICA-his allele *002
T4 chain: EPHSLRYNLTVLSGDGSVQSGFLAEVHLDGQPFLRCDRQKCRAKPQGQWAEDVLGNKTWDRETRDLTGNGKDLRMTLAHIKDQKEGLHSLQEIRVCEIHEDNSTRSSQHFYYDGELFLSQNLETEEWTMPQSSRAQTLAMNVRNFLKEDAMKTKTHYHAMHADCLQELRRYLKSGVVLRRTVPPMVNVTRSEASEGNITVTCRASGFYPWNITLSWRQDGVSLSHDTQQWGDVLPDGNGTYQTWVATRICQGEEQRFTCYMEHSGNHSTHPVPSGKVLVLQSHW

T5: recombinant soluble human MICA*008 antigen (human, UniProt Q29983 24-307)
T5 construct: also called huIMICA-his allele *008; recombinant soluble MICA (allele 8)
T5 chain: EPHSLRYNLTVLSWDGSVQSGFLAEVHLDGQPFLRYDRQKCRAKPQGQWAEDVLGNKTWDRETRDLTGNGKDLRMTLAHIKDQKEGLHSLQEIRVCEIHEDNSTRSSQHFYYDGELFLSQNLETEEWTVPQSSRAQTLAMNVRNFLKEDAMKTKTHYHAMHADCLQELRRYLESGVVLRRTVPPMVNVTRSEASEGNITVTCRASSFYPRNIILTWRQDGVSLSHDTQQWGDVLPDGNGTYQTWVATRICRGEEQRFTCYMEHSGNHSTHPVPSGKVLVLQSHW

T6: recombinant soluble human MICA*009 antigen (human, UniProt Q29983 24-307)
T6 construct: also called huIMICA-his allele *009
T6 chain: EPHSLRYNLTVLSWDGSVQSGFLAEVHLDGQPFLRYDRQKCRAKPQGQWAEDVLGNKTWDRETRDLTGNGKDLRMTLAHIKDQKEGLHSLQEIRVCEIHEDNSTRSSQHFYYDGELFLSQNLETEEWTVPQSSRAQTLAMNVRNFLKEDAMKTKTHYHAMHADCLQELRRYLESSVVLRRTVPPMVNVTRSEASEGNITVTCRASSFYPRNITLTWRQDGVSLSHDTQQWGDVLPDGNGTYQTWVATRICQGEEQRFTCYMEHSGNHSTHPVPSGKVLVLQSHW


Columns and labels:
[1] = molecular target: T1, human MICA*002 expressed on CHO cells; assay: flow cytometry, transfected CHO cells
[2] = molecular target: T2, human MICA*008 expressed on CHO cells; assay: flow cytometry, transfected CHO cells
[3] = molecular target: T3, human MICB expressed on transduced cells; assay: flow cytometry, transfected CHO cells
[4] = molecular target: T7, cynomolgus monkey MICA/B clone #4 expressed on CHO cells (cynomolgus monkey); assay: flow cytometry, transfected CHO cells
T7 construct: whole, on cells; also called cyno#4; CHO-cyno MICA clone #4

[5] = molecular target: T8, cynomolgus monkey MICA/B clone #6 expressed on CHO cells (cynomolgus monkey); assay: flow cytometry, transfected CHO cells
T8 construct: whole, on cells; also called cyno#6; CHO-cyno MICA clone #6

[6] = molecular target: T4, recombinant soluble human MICA*002 …; assay: SPR (Biacore 3000), antibody captured on Protein G chip, huMICA-his analyte; power of ten not given
Experimental: (§1) Kinetics and affinity of anti-MICA/B antibodies MICA.2, 19G6, 16A5, and 71C2 towards human MICA alleles (huIMICA-his allele *002, *004, *008, and *009) were also determined on a BIACORE 3000® instrument using the following conditions: [0571] Running Buffer: HES-EP running buffer [0572] Chip: CM5 Protein G Chip Fc1: Blank. Fc2-4: ˜200Rus [0573] Ab: 5 ug/mL, 10 uL @ 10 uL/min [0574] Ag binding: 5 min association, 7 min dissociation @ 25 uL/min, [0575] Regeneration: Glycine 1.7, 10 uL @ 100 uL/min followed by 60s wash by HES-EP

[7] = molecular target: T5, recombinant soluble human MICA*008 …; assay: as above
Experimental: as §1

[8] = molecular target: T6, recombinant soluble human MICA*009 …; assay: as above
Experimental: as §1

Binder	EC50 [1] [nM]	EC50 [2] [nM]	EC50 [3] [nM]	EC50 [4] [nM]	EC50 [5] [nM]	koff [6] [s⁻¹]	koff [7] [s⁻¹]	koff [8] [s⁻¹]
24G11 (antibody, V domains shown, also called MICA.54; 24G11 (MICA.54)) VH: EVQLVQSGAEVKKPGESLKISCKGSGYSFTNYWIGWVRQMPGKGLEWLGIIHPGDSYTRYSPSFQGQVTISADKSISTAYLQWSSLKASDTAIYYCAREGIAATPFDYWGQGTLVTVSS VL: EIVLTQSPATLSLSPGERATLSCRASQSVSSYLAWFQQKPGQAPRLLIYDASNRATGIPARFSGSGSGTDFTLTISSLEPEDFAVYYCQQRSNWPPTFGQGTKVEIK	1060	248	262	394	331			
19G6 (antibody, V domains shown, Hybridoma antibody from human IgG transgenic mice, parent of MICA.36; also called 19G6 mAb; hybridoma 19G6) VH: QVQLVESGGGVVQPGRSLRLSCAASGFTFSNYAMHWVRQAPGEGLEWVALIWYDGSNKFYGDSVKGRFTISRDNSKNTLYLQMNSLSAEDTAVYYCAREGSGHYWGQGTLVTVSS VL: AIQLTQSPSSLSASVGDRVTITCRASQGISSALAWYQQKPGKVPKSLIYDASSLESGVPSRFSGSGSGTDFTLTISSLQPEDFATYYCQQFNSYPITFGQGTRLEIK	152	9.23	1.83	1.08	22	8.14	1.87	2.15

Other lines, results leading:

EC50 [1] [nM]	EC50 [2] [nM]	EC50 [3] [nM]	EC50 [4] [nM]	EC50 [5] [nM]	koff [6] [s⁻¹]	koff [7] [s⁻¹]	koff [8] [s⁻¹]	Binder
264	10	9.81	23.4	232	0.0116	0.0109	0.0325	71C2 (antibody, V domains shown, Hybridoma antibody) VH: EVQLVESGGGLVQPGRSLRLSCAASGFTFNNYAMHWVRQAPGKGLEWVSGITWNSDSIGYADSVKGRFTISRDNAKNSLYLQMNSLRAEDTALYYCAKDSVLLWFGGMDVWGQGTTVTVSS VL: not shown
5.37	2.14	6	1.97	4.01	0.0104	0.0246	0.0232	MICA.2 (antibody, human IgG1, kappa, V domains shown, 3F5 variable regions on human IgG1f and human kappa constant regions, made in CHO-S cells; also called 3F5; recombinant antibody of 3F5) VH: EVQLVESGGGLVQPGGSLRLSCAASGFTFSTYSMNWVRQAPGKGLEWVSYISYRSRTIYYADSVKGRFTISRDNARNSLYLQMNSLRDEDTAVYYCARWGYGSGGFDYWGQGTLVTVSS VL: not shown

Reference: patent US20220281980A1 (Bristol-Myers Squibb, published 2022)
